From article PMC10250219
Read-outs that look alike come from different tables or passages of the source.

Legend:
Experiment in all cases: EMSA
GST-OGG1-G245A = GST-OGG1-G245A (human, UniProt O15527 1-345, G245A)
OGG1 WT (untagged) [1] = biological target: T1, OGG1 WT (untagged) (human, UniProt O15527 1-345)
OGG1-2NA (untagged) [2] = biological target: T2, OGG1-2NA (untagged) (human, UniProt O15527 1-345, N149A;N150A)
OGG1 WT (untagged) [3] = biological target: T1, OGG1 WT (untagged); remark: listed apart in the source
OGG1-2NA (untagged) [4] = biological target: T2, OGG1-2NA (untagged); remark: listed apart in the source
OGG1-Y203A (untagged) = OGG1-Y203A (untagged) (human, UniProt O15527 1-345, Y203A)
OGG1-Y203A (untagged), sequence (O15527 whole entry Y203A): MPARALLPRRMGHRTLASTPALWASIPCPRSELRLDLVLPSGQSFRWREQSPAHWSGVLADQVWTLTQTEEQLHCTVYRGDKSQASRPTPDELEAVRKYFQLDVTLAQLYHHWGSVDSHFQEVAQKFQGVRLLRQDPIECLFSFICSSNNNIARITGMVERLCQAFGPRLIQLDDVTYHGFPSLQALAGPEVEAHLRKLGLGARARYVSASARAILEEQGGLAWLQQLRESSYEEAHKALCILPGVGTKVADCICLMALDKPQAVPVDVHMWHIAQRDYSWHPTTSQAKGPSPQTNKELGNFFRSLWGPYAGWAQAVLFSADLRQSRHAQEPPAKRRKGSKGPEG

GST-OGG1-G245A, sequence (O15527 whole entry G245A): as the sequence (O15527 whole entry Y203A) above, with A203Y, G245A counted along it
T2 sequence (O15527 whole entry N149A/N150A): as the sequence (O15527 whole entry Y203A) above, with N149A, N150A, A203Y counted along it
T1 sequence (O15527 whole entry): as the sequence (O15527 whole entry Y203A) above, with A203Y counted along it

B1: Cy5 34-mer 8-oxoG:C duplex (dsDNA)
DNA 1: GGCTTCATCGTTGTCGCAGACCTGGTGGATACCG
DNA 2: CGGTATCCACCAGGTCTGCGACAACGATGAAGCC
modifications: 8-oxoG at position 16 of strand 1 (opposite C)
B1: no binding (GST-OGG1-G245A).

B2: Cy5 34-mer G:C duplex (dsDNA)
DNA 1: GGCTTCATCGTTGTCGCAGACCTGGTGGATACCG
DNA 2: CGGTATCCACCAGGTCTGCGACAACGATGAAGCC
B2: no binding (GST-OGG1-G245A).

B3: 24-mer 8-oxoG:C duplex (dsDNA)
DNA 1: CTGATCGATGACGCCTGACATGAT
DNA 2: ATCATGTCAGGCGTCATCGATCAG
modifications: 8-oxoG at position 13 of strand 1 (opposite C)
B3 gave a Kd (OGG1 WT (untagged) [1]) of 0.42 ± 0.03 nM and a Kd (OGG1-2NA (untagged) [2]) of 6.37 ± 0.58 nM.

B4: 24-mer G:C duplex (dsDNA)
DNA 1: CTGATCGATGACGCCTGACATGAT
DNA 2: ATCATGTCAGGCGTCATCGATCAG
Work on B4 yielded a Kd (OGG1 WT (untagged) [3]) of 2220 ± 220 nM, a Kd (OGG1-2NA (untagged) [4]) of 602 ± 42 nM and a Kd (OGG1-Y203A (untagged)) of 1970 ± 270 nM.
